Molecular target: the molecule itself
Experiment: cryo-EM structure

B1: human XPR1 (Xenotropic and polytropic retrovirus receptor 1) (natural protein, UniProt Q9UBH6-1 1-696, looked up)
chain: MKFAEHLSAHITPEWRKQYIQYEAFKDMLYSAQDQAPSVEVTDEDTVKRYFAKFEEKFFQTCEKELAKINTFYSEKLAEAQRRFATLQNELQSSLDAQKESTGVTTLRQRRKPVFHLSHEERVQHRNIKDLKLAFSEFYLSLILLQNYQNLNFTGFRKILKKHDKILETSRGADWRVAHVEVAPFYTCKKINQLISETEAVVTNELEDGDRQKAMKRLRVPPLGAAQPAPAWTTFRVGLFCGIFIVLNITLVLAAVFKLETDRSIWPLIRIYRGGFLLIEFLFLLGINTYGWRQAGVNHVLIFELNPRSNLSHQHLFEIAGFLGILWCLSLLACFFAPISVIPTYVYPLALYGFMVFFLINPTKTFYYKSRFWLLKLLFRVFTAPFHKVGFADFWLADQLNSLSVILMDLEYMICFYSLELKWDESKGLLPNNSEESGICHKYTYGVRAIVQCIPAWLRFIQCLRRYRDTKRAFPHLVNAGKYSTTFFMVTFAALYSTHKERGHSDTMVFFYLWIVFYIISSCYTLIWDLKMDWGLFDKNAGENTFLREEIVYPQKAYYYCAIIEDVILRFAWTIQISITSTTLLPHSGDIIATVFAPLEVFRRFVWNFFRLENEHLNNCGEFRAVRDISVAPLNADDQTLLEQMMDQDDGVRNRQKNRSWKYNQSISLRRPRLASQSKARDTKVLIEDTDDEANT
In the case of B1, the “stoichiometry N” value is reported as 2.

Reference: PMC11947285 (Nature Communications, 2025)
